Laboratory results: patent US20050283857A1
pKd: −log10 of the molar value.

What was measured:
[1] = molecular target: Cad11-12 truncated Bt-R1a cadherin expressed in S2 cells (Manduca sexta); assay: 125I-Cry1Ab saturation binding on S2 cell suspensions
[2] = molecular target: Cad11-12 truncated Bt-R1a cadherin expressed in S2 cells (Manduca sexta); assay: 125I-Cry1Ab toxin binding saturation assay on S2 cells; concentration of receptors
[3] = molecular target: Cad12 truncated Bt-R1a cadherin expressed in S2 cells (Manduca sexta); assay: as above
[4] = molecular target: Cad7-12 truncated Bt-R1a cadherin expressed in S2 cells (Manduca sexta); assay: as above
[5] = molecular target: Manduca sexta cadherin Bt-R1a, full length, expressed in Drosophila S2 cells (Manduca sexta); assay: as above
[6] = molecular target: Cad11-12 truncated Bt-R1a cadherin expressed in S2 cells (Manduca sexta); assay: 125I-Cry1Ab toxin binding saturation assay on S2 cells; dissociation constant (Kcom)
[7] = molecular target: Cad12 truncated Bt-R1a cadherin expressed in S2 cells (Manduca sexta); assay: as above
[8] = molecular target: Manduca sexta cadherin Bt-R1a, full length, expressed in Drosophila S2 cells (Manduca sexta); assay: as above

Q: With Cry1Ab toxin (ligand) as the substance, how does the fold higher concentration of binding sites than Cad12 [1] read?
A: 3 fold

Q: And the Bmax (fmoles/mg protein) [2]?
A: 3320

Q: And the Bmax (fmoles/mg protein) [3]?
A: 1410

Q: And the Bmax (fmoles/mg protein) [4]?
A: 506

Q: And the Bmax (fmoles/mg protein) [5]?
A: 625

Q: And the pKd [6]?
A: 8.45

Q: What about the pKd [7] of the same substance?
A: 8.54

Q: And the pKd [8]?
A: 8.45
